Experimental findings from patent US20140328838A1 (NVIP, published 2014) are described below.

One assay addresses T1, human TNF (human, UniProt P01375 77-233).
T1 construct: also called huTNF
Briefly: ELISA (FIG. 16 panel B). For orientation: In an ELISA, binding on a coated surface is turned into a signal by an enzyme label.

Assay [1] addresses T2, canine TNF alpha (canine, UniProt P51742 77-233).
T2 construct: Coated at 5 ug/ml in the ELISA; Used at 1 ng/mL in the reporter assay
Briefly: ELISA (FIG. 16 panel C).

Assay [2] concerns the target T2, canine TNF alpha. Nature of the assay: ELISA, canine TNF alpha coated; antibody 5 to 0.05 µg/ml (FIG. 14B).

T2 sequence (P51742 77-233 limits assumed): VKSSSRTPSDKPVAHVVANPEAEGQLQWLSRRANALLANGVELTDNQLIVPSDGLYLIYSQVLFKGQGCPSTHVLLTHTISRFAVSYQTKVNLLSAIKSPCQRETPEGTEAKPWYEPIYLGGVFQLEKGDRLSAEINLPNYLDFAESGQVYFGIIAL
T1 sequence (P01375 77-233 limits assumed): as the sequence (P51742 77-233 limits assumed) above, with K2R, E21Q, S30N, T44R, I49V, D53E, F83I, T109A, L138R, N140D counted along it

B1: caninised anti-huTNF MAb 148 (antibody, V domains shown)
VH: EVQLVESGGGVVQPGGSLRLSCAASGFIFSSYAMRWVRQAPGKGLEWVAFMSYDGSNKKYADSVKGRFTISRDNSKNTLYLQMNSLRAEDTAVYYCARDRGIAAGGNYYYYGMDVWGQGTSVTVSS
VL: EIVMTQSPASLSLSPGEKATISCRASQSVYSYLAWYQQKPGQAPRLLIYDASNRATGVPSRFSGSGSGTDFTLTISSLEPEDVAVYYCQQPSNWPPFTFGPGTKVDIKR
notes: Expressed in CHO cells and purified by Protein A chromatography
Turning to B1, the binding result is reported as “binds” with human TNF and “no binding” with canine TNF alpha [1].

B2: caninised anti-TNF monoclonal antibody based on D2E7 (ca-HCB+ca-kLC) (antibody, V domains shown)
VH: not shown
VL: DIVMTQSPASLSLSQEEKVTITCRASQGIRNYLAWYQQKPGQAPKLLIYAASTLQSGVPSRFSGSGSGTDFTLTISSLEPEDVAVYYCQRYNRAPYTFGQGTKVEIKR
notes: also called caninised (Ca) D2E7 based MAb; canine PETised D2E7
Regarding B2, the binding result with human TNF and in the assay with canine TNF alpha [2] was “binds” in each case.
